# According to patent publication US5792634:
# Biological target: RNA polymerase II purified from rat liver (rat)
substance,measurement,value
"RNA polymerase transcription factor SIII (Elongin), purified from rat liver","rate of RNA chain elongation, runoff transcription from the AdML promoter",> 5 fold
